In assay [1] the target is T1, human NGF protein (Sino biological, 11050-HNAC) (human, UniProt P01138 122-241).
T1 construct: also called Human (monkey) NGF
Kind of assay: SPR (Biacore), antibody captured on Protein A chip, antigen in flow, 1:1 fit. The procedure: (§1) Reaction signals were detected in real time by using Biacore, and binding and dissociation curves were obtained. After dissociation was complete in each cycle, the biochip was washed and regenerated with a glycine-hydrochloric acid regeneration solution (GE, BR-1003-54) having a pH of 1.5. Fitting was performed on the experimental data using BIAevaluation version 4.1 software with a 1:1 model, and affinity values were obtained.

Assay [2] concerns the target T1, human NGF protein (Sino biological, …). Kind of assay: cell-based or functional assay.
In assay [3] the target is T2, murine RANKL (R&D Systems, 462-TR/CF) (murine, UniProt O35235 72-316, limits assumed).
T2 construct: Bought protein
T2 sequence (looked up): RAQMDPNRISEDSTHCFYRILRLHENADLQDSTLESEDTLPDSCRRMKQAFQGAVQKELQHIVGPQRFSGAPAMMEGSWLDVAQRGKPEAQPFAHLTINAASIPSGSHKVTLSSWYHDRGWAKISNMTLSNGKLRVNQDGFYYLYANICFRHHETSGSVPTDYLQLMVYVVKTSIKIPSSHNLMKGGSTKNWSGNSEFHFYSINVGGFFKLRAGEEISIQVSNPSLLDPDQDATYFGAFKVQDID
Kind of assay: ELISA on coated antigen (1 ug/mL), anti-human Fc-HRP. The procedure: (§2) The antigen was diluted to 1 μg/mL with a pH 7.4 PBS buffer (BasalMedia, B320) and added to a 96-well microplate (Coming, 9018) at 100 μL/well, and the plate was incubated overnight at 4° C. After the liquid was discarded, a 5% skim milk (BD, 232100) blocking solution diluted with PBS was added at 300 μL/well, and the plate was incubated at 37° C. for 2 h for blocking. After the blocking was complete, the blocking solution was discarded, and the plate was washed 3 times with a PBST buffer (pH 7.4 PBS containing 0.1% tween-20). Then a bispecific antibody diluted with a sample diluent (pH 7.4 containing 1% BSA) to different concentrations was added at 100 μL/well, and the plate was incubated in a 37° C. incubator for 1 h. After the incubation was complete, the plate was washed 3 times with PBST. An HRP-labeled anti-human Fc secondary antibody (Abcam, ab97225) diluted with the sample diluent was added at 100 μL/well, and the plate was incubated at 37° C. for 1 h. After the plate was washed 3 times with PBST, TMB chromogenic substrate (KPL, 5120-0077) was added at 100 μL/well, and the plate was incubated at room temperature for 10 to 15 min. 50 μL of 1 M H₂SO₄ was added to each well to stop the reactions. The absorbance values at 450 nm were taken using a microplate reader, and the EC50 values for binding of the bispecific antibody to the antigens were calculated.
In general terms: In an ELISA, binding on a coated surface is turned into a signal by an enzyme label.

For assay [4], the target named is T3, murine NGF (Sino Biological, 50385-MNAC) (murine, UniProt P01139 122-241).
T3 construct: Bought protein
The description is as above. The procedure:
as §2

The target in assay [5] is T1, human NGF protein (Sino biological, …). The assay is described as above. On the procedure:
as §2

The target in assay [6] is T4, human RANKL protein (Sino Biological, 11682-HNCH) (human, UniProt O14788 136-317, limits assumed).
T4 construct: Bought protein
T4 sequence (looked up): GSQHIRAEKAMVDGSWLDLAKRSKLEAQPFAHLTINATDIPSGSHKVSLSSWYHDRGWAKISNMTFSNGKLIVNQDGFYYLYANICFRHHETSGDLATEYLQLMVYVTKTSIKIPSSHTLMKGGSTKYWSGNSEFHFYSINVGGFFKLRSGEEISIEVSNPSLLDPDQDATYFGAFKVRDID
Described as above. The procedure: as §2

Assay [7] has as its target T1, human NGF protein (Sino biological, …). Kind of assay: blocking ELISA: antibody titrated with fixed biotin-human NGF, on coated human TrkA. The procedure: The plate was incubated at 37° C. for 1.5 h. After the incubation was complete, the plate was washed 3 times with PBST. Streptavidin-HRP (Invitrogen, 434323, diluted at 1:4000) was added at 100 μL/well, and the plate was incubated at 37° C. for 1 h. The supernatant was removed. After the plate was washed 3 times with PBST, TMB chromogenic substrate (KPL, 5120-0077) was added at 100 μL/well, and the plate was incubated at room temperature for 10 to 15 min. […] The absorbance values at 450 nm were taken using a microplate reader.

For assay [8] the target is unchanged. Kind of assay: cell-based or functional assay. The source holds these as a separate data set.
Assay [9] deals with T4, human RANKL protein (Sino Biological, …). Kind of assay: SPR (Biacore), antibody captured on Protein A chip, RANKL in flow, 1:1 fit. The procedure: as §1
On the technique in general: Surface plasmon resonance follows binding to a sensor surface in real time, without labels.

For assay [10] the target is unchanged. Kind of assay: blocking ELISA: antibody titrated with fixed biotin-human RANKL, on coated human RANK. The procedure: After the incubation was complete, the plate was washed 3 times with PBST. Streptavidin-HRP (Invitrogen, 434323, diluted at 1:4000) was added at 100 μL/well, and the plate was incubated at 37° C. for 1 h. The supernatant was removed. After the plate was washed 3 times with PBST, TMB chromogenic substrate (KPL, 5120-0077) was added at 100 μL/well, and the plate was incubated at room temperature for 10 to 15 min. […] The absorbance values at 450 nm were taken using a microplate reader.

Results on two molecules are retold here after patent publication US20240254245A1 (JIANGSU HENGRUI PHARMACEUTICALS, published 2024).

What is called Kd is the constant that tells how readily two partners part at equilibrium. The koff is the rate constant with which the complex falls apart. The term kon denotes the second-order rate constant of association. A low value points to slow association. A word on the EC50: it is the concentration needed to bring the measured effect to its halfway point. Read a high EC50 as a less potent agent. Broadly, the IC50 is the point on the concentration scale where inhibition reaches its midpoint. Read a high IC50 as a need for much substance.

T1 sequence (P01138 122-241 limits assumed): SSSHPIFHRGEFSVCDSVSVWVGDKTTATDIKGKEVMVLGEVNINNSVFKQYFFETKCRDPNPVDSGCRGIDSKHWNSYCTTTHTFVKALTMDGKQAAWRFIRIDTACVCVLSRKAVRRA
T3 sequence (P01139 122-241 limits assumed): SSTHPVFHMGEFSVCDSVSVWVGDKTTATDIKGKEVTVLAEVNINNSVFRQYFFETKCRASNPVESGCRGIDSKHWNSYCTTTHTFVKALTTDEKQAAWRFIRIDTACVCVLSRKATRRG

B1: Tanezumab (antibody, human IgG2, kappa, V domains shown)
VH: QVQLQESGPGLVKPSETLSLTCTVSGFSLIGYDLNWIRQPPGKGLEWIGIIWGDGTTDYNSAVKSRVTISKDTSKNQFSLKLSSVTAADTAVYYCARGGYWYATSYYFDYWGQGTLVTVSS
VL: DIQMTQSPSSLSASVGDRVTITCRASQSISNNLNWYQQKPGKAPKLLIYYTSRFHSGVPSRFSGSGSGTDFTFTISSLQPEDIATYYCQQEHTLPYTFGQGTKLEIKR
notes: Control antibody; also called control anti-NGF antibody
B1: in assay [1], the Kd came to 0.142 nM, the koff amounted to 0.000184 s⁻¹ and the kon stood at 1.29e+06 M⁻¹ s⁻¹. In assay [2], the “TF-1 cell proliferation-inhibiting activity (TF-1 cells + human NGF, Cell-titer Glo) IC50” value amounted to 0.759 nM. Moreover, the binding result in assay [3] was “no binding”. In assay [4], it took 1.15 nM to reach a half-maximal effect (EC50). The EC50 in [5] worked out at 2.27 nM. Also, in [6], the binding result is reported as “no binding”. For the same molecule, the IC50 in assay [7] came out at 3.66 nM. Also, the “TF-1 cell proliferation-inhibiting activity, fold relative to bispecific antibody 1” value in [8] is ~4.2 times.

B2: 5-58H (antibody, V domains shown)
VH: EVQLLESGGGLVQPGGSLRLSCAASGFTFSSYAMSWVRQAPGKGLEWVSGITGSGGSTYYADSVKGRFTISRDNSKNTLYLQMNSLRAEDTAVYYCVQDPGFTYIMSWFDPWGQGTLVTVSS
VL: EIVLTQSPGTLSLSPGERATLSCRASQSVRGRYLAWYQQKPGQAPRLLIYGASSRATGIPDRFSGSGSGTDFTLTISRLEPEDFAVFYCQQYGSSPRTFGQGTKVEIK
notes: Variable regions fused to human constant regions
For the molecule B2, in assay [9], the Kd is 41 nM, the “Ratio of affinities (fold increase in affinity relative to denosumab)” value stood at 0.23 fold, the koff is 0.000501 s⁻¹ and the kon is 12200 M⁻¹ s⁻¹. In addition, the midpoint of inhibition in assay [10], the IC50, lay at 0.999 nM.
